Source: patent US10239925B2, “Peptides and combination of peptides for use in immunotherapy against ovarian cancer and other cancers” (IMMATICS BIOTECHNOLOGIES GMBH, priority 2015, dated 2019)

Biological target: HLA-A*02:01 (Homo sapiens, UniProt P04439, D140Y/D185E/D98H/E176V/E277Q/G131W/G231S/I119V/I121R/I166T/I218V/L300P/L318F/N151K/N90K/P208A/P217A/Q86G/Q94H/R138H/R169H/T345S)
Experiment: MHC binding assay (UV-ligand exchange, anti-β2m ELISA, peptide exchange yield)
Settings: binding to HLA-A*02:01
How it was run: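 Peptide-MHC complexes formed by UV-ligand exchange, cleaving a UV-sensitive placeholder peptide in favour of the test peptide. Exchange yield measured by ELISA: monomers diluted 100-fold onto streptavidin-coated plates, 1 h 37 °C, detected with 2 ug/ml HRP anti-β2m and TMB, absorbance at 450 nm.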

| Substance | Peptide exchange (MHC class I binding score, peptide exchange yield) |
| --- | --- |
| 556 (FLTDLEDLTL; listed as Homo sapiens) [compound 556] | “+++” (>50 = +++) |
| 557 (KLYDDMIRL; listed as Homo sapiens) [compound 557] | “+++” (>50 = +++) |
| 558 (GLLENIPRV; listed as Homo sapiens) [compound 558] | “+++” (>50 = +++) |
| 559 (VTVPPGPSL; listed as Homo sapiens) [compound 559] | “++” (>20% = ++) |
| 560 (ALWDIETGQQTTT; listed as Homo sapiens) [compound 560] | “+++” (>50 = +++) |
| 561 (YLQLTQSEL; listed as Homo sapiens) [compound 561] | “+++” (>50 = +++) |
| 562 (YLEELPEKLKL; listed as Homo sapiens) [compound 562] | “+++” (>50 = +++) |
| 563 (WLLPYNGVTV; listed as Homo sapiens) [compound 563] | “+++” (>50 = +++) |
| 564 (TVTNAVVTV; listed as Homo sapiens) [compound 564] | “+++” (>50 = +++) |
| 565 (ALQETPTSV; listed as Homo sapiens) [compound 565] | “++” (>20% = ++) |
| 566 (VIADGGIQNV; listed as Homo sapiens) [compound 566] | “++” (>20% = ++) |
| 567 (SLLPLDDIVRV; listed as Homo sapiens) [compound 567] | “+++” (>50 = +++) |
| 568 (TLYDIAHTPGV; listed as Homo sapiens) [compound 568] | “++++” (>75% = ++++) |
| 569 (KLVDRTWTL; listed as Homo sapiens) [compound 569] | “+++” (>50 = +++) |
| 570 (ALANQIPTV; listed as Homo sapiens) [compound 570] | “++” (>20% = ++) |
| 571 (LLLTTIPQI; listed as Homo sapiens) [compound 571] | “+++” (>50 = +++) |
| 572 (ALADLIEKELSV; listed as Homo sapiens) [compound 572] | “+++” (>50 = +++) |
| 573 (ILVANAIVGV; listed as Homo sapiens) [compound 573] | “+++” (>50 = +++) |
| 574 (YLLQEPPRTV; listed as Homo sapiens) [compound 574] | “++” (>20% = ++) |
| 575 (YLISQVEGHQV; listed as Homo sapiens) [compound 575] | “+++” (>50 = +++) |
| 576 (ILLNNSGQIKL; listed as Homo sapiens) [compound 576] | “++++” (>75% = ++++) |
| 577 (VMFEDGVLMRL; listed as Homo sapiens) [compound 577] | “+++” (>50 = +++) |
| 578 (FLDPGGPMMKL; listed as Homo sapiens) [compound 578] | “+++” (>50 = +++) |
| 579 (NLMEMVAQL; listed as Homo sapiens) [compound 579] | “++” (>20% = ++) |
| 580 (LLMENAERV; listed as Homo sapiens) [compound 580] | “++” (>20% = ++) |

| Substance | Peptide exchange (MHC class I binding score, peptide exchange yield) |
| --- | --- |
| 582 (TLCDVILMV; listed as Homo sapiens) [compound 582] | “+++” (>50 = +++) |
| 583 (ILANDGVLLAA; listed as Homo sapiens) [compound 583] | “+++” (>50 = +++) |
| 584 (ALAEVAAMENV; listed as Homo sapiens) [compound 584] | “+++” (>50 = +++) |
| 585 (ALWDLAADKQTL; listed as Homo sapiens) [compound 585] | “++++” (>75% = ++++) |
| 586 (KLKPGDLVGV; listed as Homo sapiens) [compound 586] | “+++” (>50 = +++) |
| 587 (VMNDRLYAI; listed as Homo sapiens) [compound 587] | “+++” (>50 = +++) |
| 588 (SLLPLSHLV; listed as Homo sapiens) [compound 588] | “+++” (>50 = +++) |
| 589 (KLYPQLPAEI; listed as Homo sapiens) [compound 589] | “+++” (>50 = +++) |
| 590 (SLIEKLWQT; listed as Homo sapiens) [compound 590] | “++” (>20% = ++) |
| 591 (SMAELDIKL; listed as Homo sapiens) [compound 591] | “+++” (>50 = +++) |
| 592 (RLLSAAENFL; listed as Homo sapiens) [compound 592] | “+++” (>50 = +++) |
| 593 (GLPRFGIEMV; listed as Homo sapiens) [compound 593] | “+++” (>50 = +++) |
| 594 (IMLKGDNITL; listed as Homo sapiens) [compound 594] | “+++” (>50 = +++) |
| 595 (VLLSIYPRV; listed as Homo sapiens) [compound 595] | “+++” (>50 = +++) |
| 596 (ALLDQTKTLAESAL; listed as Homo sapiens) [compound 596] | “+++” (>50 = +++) |
| 597 (KLLEGQVIQL; listed as Homo sapiens) [compound 597] | “+++” (>50 = +++) |
| 598 (FLFPHSVLV; listed as Homo sapiens) [compound 598] | “+++” (>50 = +++) |
| 599 (YLLNDASLISV; listed as Homo sapiens) [compound 599] | “+++” (>50 = +++) |
| 600 (ALAAPDIVPAL; listed as Homo sapiens) [compound 600] | “+++” (>50 = +++) |
| 601 (SAFPFPVTV; listed as Homo sapiens) [compound 601] | “+++” (>50 = +++) |
| 602 (YLLEQIKLIEV; listed as Homo sapiens) [compound 602] | “++++” (>75% = ++++) |
| 604 (SILDRDDIFV; listed as Homo sapiens) [compound 604] | “+++” (>50 = +++) |
| 605 (KLYEAVPQL; listed as Homo sapiens) [compound 605] | “+++” (>50 = +++) |
| 606 (ALWETEVYI; listed as Homo sapiens) [compound 606] | “+++” (>50 = +++) |
| 607 (RLYSGISGLEL; listed as Homo sapiens) [compound 607] | “+++” (>50 = +++) |
